The target in the test is Soluble HLA-DR4 (DRB1*0401) (human).

The values that follow come from PMC1779432.

Substance “CII(256-276)(F263N, E266A) analog peptide” showed an IL-4 secretion by pooled splenocytes and lymph node cells of CII-immunized DR4 transgenic mice (chimeric DR4 on the cells) cultured with 100 μg/ml peptide of 66 pg/mL. For “CII(256-276)(F263N, E266D) analog peptide” the value was 48 pg/mL.
